Test results published in US20260015426A1 (23ANDME, published 2026).

T1: hu-M-IL1RAP construct, positions S21-T367 (extracellular domain of the membrane form of human IL1RAP) (human, UniProt Q9NPH3 21-367)
T1 construct: Biotinylated when captured on the Biacore chip
T1 sequence: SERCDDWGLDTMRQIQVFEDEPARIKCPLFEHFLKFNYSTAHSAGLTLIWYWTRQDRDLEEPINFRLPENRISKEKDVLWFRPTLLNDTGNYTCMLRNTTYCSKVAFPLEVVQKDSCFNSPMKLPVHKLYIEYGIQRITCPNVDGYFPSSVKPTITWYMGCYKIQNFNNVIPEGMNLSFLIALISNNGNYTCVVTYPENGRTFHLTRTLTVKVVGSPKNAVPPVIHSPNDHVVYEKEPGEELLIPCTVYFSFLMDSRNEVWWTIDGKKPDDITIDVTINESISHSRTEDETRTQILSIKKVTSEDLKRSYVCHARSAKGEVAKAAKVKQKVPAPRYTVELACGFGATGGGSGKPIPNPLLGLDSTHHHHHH

T2: hu-M-IL1RAP-D3 construct, positions K238-T367 (human)
T2 chain: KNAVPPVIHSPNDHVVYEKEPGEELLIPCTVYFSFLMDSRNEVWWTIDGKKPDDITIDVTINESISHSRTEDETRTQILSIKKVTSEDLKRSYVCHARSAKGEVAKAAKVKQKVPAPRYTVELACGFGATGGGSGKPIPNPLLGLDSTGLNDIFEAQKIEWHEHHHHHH

T3: human IL1RAP (hu-IL1RAP) on human cells (human, UniProt Q9NPH3 21-570)
T3 sequence: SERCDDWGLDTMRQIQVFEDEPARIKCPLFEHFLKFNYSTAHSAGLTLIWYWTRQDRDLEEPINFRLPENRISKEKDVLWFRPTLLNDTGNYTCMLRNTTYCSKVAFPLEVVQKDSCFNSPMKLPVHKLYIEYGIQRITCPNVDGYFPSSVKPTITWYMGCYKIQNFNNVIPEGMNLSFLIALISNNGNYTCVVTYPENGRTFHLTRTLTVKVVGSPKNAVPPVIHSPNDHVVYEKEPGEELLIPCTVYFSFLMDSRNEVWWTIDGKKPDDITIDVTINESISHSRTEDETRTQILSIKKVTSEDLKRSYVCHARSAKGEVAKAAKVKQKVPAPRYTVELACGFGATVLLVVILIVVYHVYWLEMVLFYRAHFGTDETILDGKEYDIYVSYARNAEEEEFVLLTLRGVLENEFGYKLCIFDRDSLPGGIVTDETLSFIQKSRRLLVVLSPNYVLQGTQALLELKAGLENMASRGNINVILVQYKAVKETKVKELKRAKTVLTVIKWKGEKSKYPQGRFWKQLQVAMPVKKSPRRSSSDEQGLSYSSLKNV

T4: hu-S-IL1RAP construct, positions S21-Q356 (soluble human IL1RAP) (human, UniProt Q9NPH3 21-350)
T4 sequence: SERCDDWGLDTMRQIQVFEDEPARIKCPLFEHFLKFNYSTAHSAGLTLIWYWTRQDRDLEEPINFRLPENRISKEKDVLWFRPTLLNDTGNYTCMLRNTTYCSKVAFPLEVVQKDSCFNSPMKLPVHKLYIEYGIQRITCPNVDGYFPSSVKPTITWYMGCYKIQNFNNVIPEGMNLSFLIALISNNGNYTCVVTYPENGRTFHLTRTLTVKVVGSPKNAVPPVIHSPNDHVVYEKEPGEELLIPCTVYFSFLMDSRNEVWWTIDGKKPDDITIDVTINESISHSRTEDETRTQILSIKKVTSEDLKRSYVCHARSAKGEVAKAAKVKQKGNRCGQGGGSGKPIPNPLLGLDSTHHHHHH

T5: cyno-M-IL1RAP construct, positions S21-T367 (cynomolgus monkey, UniProt P59822 21-367 (rhesus entry))
T5 construct: Biotinylated when captured on the Biacore chip; also called cy-M-IL1RAP
T5 sequence: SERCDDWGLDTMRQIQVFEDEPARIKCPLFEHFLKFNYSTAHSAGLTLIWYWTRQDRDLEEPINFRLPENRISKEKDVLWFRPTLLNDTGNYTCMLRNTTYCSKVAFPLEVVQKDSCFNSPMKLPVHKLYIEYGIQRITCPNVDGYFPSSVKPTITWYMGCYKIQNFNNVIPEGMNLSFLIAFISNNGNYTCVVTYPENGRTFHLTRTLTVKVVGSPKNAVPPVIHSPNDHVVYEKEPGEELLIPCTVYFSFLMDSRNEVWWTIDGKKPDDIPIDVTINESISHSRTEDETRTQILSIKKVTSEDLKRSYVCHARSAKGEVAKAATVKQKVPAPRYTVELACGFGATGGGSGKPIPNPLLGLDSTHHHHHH

T6: mu-M-IL1RAP construct, positions S21-T367 (mouse, UniProt Q61730 21-367)
T6 construct: also called mo-M-IL1RAP; mouse-M-IL1RAP
T6 sequence: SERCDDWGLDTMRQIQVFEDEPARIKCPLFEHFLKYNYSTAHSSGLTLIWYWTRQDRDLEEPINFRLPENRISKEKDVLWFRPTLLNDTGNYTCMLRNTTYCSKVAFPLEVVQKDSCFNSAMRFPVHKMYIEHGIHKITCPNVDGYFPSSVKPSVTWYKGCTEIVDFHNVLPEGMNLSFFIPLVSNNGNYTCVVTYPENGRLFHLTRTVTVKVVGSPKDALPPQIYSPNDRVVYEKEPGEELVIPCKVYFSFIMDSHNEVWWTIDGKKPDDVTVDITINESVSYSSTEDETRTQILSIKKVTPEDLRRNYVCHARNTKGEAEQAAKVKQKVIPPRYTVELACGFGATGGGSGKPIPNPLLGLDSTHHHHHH


Experiments:
[1] = biological target: T1, hu-M-IL1RAP construct, positions …; experiment: ELISA, mAb at 10 nM
Procedure: (§1) After removing the coating solution, unspecific binding was blocked by adding 200 μL of assay/blocking solution containing 1% bovine serum albumin (BSA) in phosphate buffered saline (PBS) pH 7.4 (ELISA diluent) and incubation at room temperature for one hour with agitation or overnight at 4° C. without agitation. Plates were then washed three times with 300 μL of PBS, 0.05% TWEEN®-20 (wash buffer). 100 μL of culture supernatant from individual hybridoma clones (or purified antibodies at the indicated concentration) was added to individual wells followed by incubation at room temperature for one hour with agitation. […] The plate was incubated at room temperature for one hour with agitation, washed six times with wash buffer and developed for 3-10 minutes by adding 50 μL/well of tetramethylbenzidine (TMB) microwell peroxidase substrate (Scytek Laboratories, Inc., Logan, UT, USA; catalogue number TM1999).
(§2) Binding domain mapping: Binding domain mapping of the 15 purified antibodies was carried out using the above-described ELISA assay with the following IL1RAP polypeptide constructs coated at 1 μg/ml on the assay plates: hu-M-IL1RAP, hu-M-IL1RAP-D1, hu-M-IL1RAP-D1D2, and hu-M-IL1RAP-D3.

[2] = biological target: T2, hu-M-IL1RAP-D3 construct, positions …; experiment: ELISA, mAb at 10 nM
Procedure: as §1, §2

[3] = biological target: T3, human IL1RAP (hu-IL1RAP) on human cells; experiment: cell-based or functional assay
[4] = biological target: T1, hu-M-IL1RAP construct, positions …; experiment: ELISA, hybridoma supernatant
Procedure: as §1

[5] = biological target: T3, human IL1RAP (hu-IL1RAP) on human cells; experiment: cell-based or functional assay; remark: listed apart in the source
[6] = biological target: T4, hu-S-IL1RAP construct, positions …; experiment: ELISA, purified mAb
Procedure: as §1

[7] = biological target: T5, cyno-M-IL1RAP construct, positions …; experiment: ELISA, purified mAb
Procedure: as §1

[8] = biological target: T6, mu-M-IL1RAP construct, positions …; experiment: ELISA, purified mAb
Procedure: as §1

[9] = biological target: T1, hu-M-IL1RAP construct, positions …; experiment: ELISA, purified mAb
Procedure: as §1

[10] = biological target: T3, human IL1RAP (hu-IL1RAP) on human cells; experiment: cell-based or functional assay; remark: listed apart in the source
[11] = biological target: T5, cyno-M-IL1RAP construct, positions …; experiment: BLI (OCTET), mAb on AMC sensor, 25 C
Procedure: (§3) The BLI experimental format immobilizes the antibody on a biolayer surface with the IL1RAP antigen in solution. […] All samples were placed in black 96-well plates and the experiment was performed at 25° C. […] The biosensors were equilibrated in experimental buffer at 25° C. for ten minutes prior to starting the experiment.
(§4) The kinetics experiment was performed with the following steps, where the step name, solution and time are listed: Baseline (buffer—60 seconds), Loading (antibody—200 seconds), Baseline 2 (buffer—minimum 120 seconds), Association (analyte—200-300 seconds) and Dissociation (buffer—1000 seconds). The BLI signal resulting from analyte association and dissociation of the antigens from the immobilized antibody was analyzed using the OCTET® Data Analysis software (Pall ForteBio). First, a reference subtraction was performed on all recorded traces using the reference well (biosensor that underwent the same steps as experimental wells but no analyte for the Association step), then all the traces were aligned to the beginning of the Association step.

[12] = biological target: T1, hu-M-IL1RAP construct, positions …; experiment: BLI (OCTET), mAb on AMC sensor, 25 C
Procedure: as §3, §4

| Binder | A450 [1] [A450] | A450 [2] [A450] | HEK-Blue SEAP, IL-1β, % inhibition (supernatant) [3] [%] | HEK-Blue SEAP, IL-33, % inhibition (supernatant) [3] [%] | A450 [4] [A450] | HEK-Blue, IL-1β, % inhibition at 100 nM [5] [%] | HEK-Blue, IL-33, % inhibition at 100 nM [5] [%] | EC50 [6] [nM] | EC50 [7] [nM] | binding result [8] | EC50 [9] [nM] | further results |
| --- | --- | --- | --- | --- | --- | --- | --- | --- | --- | --- | --- | --- |
| 10A11 (purified mAb from hybridoma 10A11) (antibody, V domains shown, Mouse hybridoma mAb) VH: EVQLQQSGAELVKPGASVRLSCTSSGFNIKDYFMHWVKQRTEQGLEWVGRIDPEDGETQYAPNFQDKATITVDTSSNTVYLQLSSLTSEDTAVYYCFRPLYYGNSPWFAYWGQGTLVTVSP VL: DIQMTQTTSSLSASLGDRVTISCRASQDISNYLNWYQQKPDGTVKLLIYYTSTLHSGVPSRFSGSGSGTDYSLTISNLEPEDIATYYCHQYSKFPPTFGSGTKLEIK | 1.18 | 1.4 | 53 | 51 | 0.99 | 72 | 56 | 0.035 | 0.032 | no binding (tested: 20 nM (highest tested)) | 0.039 | – |
| 11C5(Hy) (purified mAb from the 11C5 hybridoma) (antibody, V domains shown, Mouse hybridoma mAb; also called 11C5(Hy) mAb; mAb 11C5(Hy)) VH: EVQLVESGGGLVKPGGSLKLSCAASGFTFSNYAMSWVRQTPEKRLEWVATVTEGGDYNYCLDDVKGRFTISRDNANDNLYLQMSHLKSEDSARYYCARDRWPYFFDYWGQGTTLTVSS VL: DIQMTQSPASLSVSVGETVTITCRASENIYSNLAWYQQKQGRSPQLLVYGAKNLADGVPSRFSGSGSGTQYSLNINSLQSEDFGTYYCQHFWTTPRTFGGGTKLEIK | 1.23 | 1.44 | 84 | 65 | 1.44 | 99 | 93 | 0.029 | 0.024 | no binding (tested: 20 nM (highest tested)) | 0.026 | HEK-Blue, IL-1α, IC50 [10]: 4.7 nM; HEK-Blue, IL-1β, IC50 [10]: 1 nM; HEK-Blue, IL-33, IC50 [10]: 3.71 nM; HEK-Blue, IL-36α, IC50 [10]: 2.52 nM; HEK-Blue, IL-36β, IC50 [10]: 981 pM; HEK-Blue, IL-36γ, IC50 [10]: 665 pM; Kd [11]: 0.142 nM; koff [11]: 5.74e-05 s⁻¹; kon [11]: 413000 M⁻¹ s⁻¹; Kd [12]: 0.219 nM; koff [12]: 0.000103 s⁻¹; kon [12]: 469000 M⁻¹ s⁻¹ |
| 13D8 (purified mAb from hybridoma 13D8) (antibody, V domains shown, Mouse hybridoma mAb) VH: EVQLVESGGGLVKPGGSLKLSCTASGFTFSNYAMSWVRQTPEKRLEWVATISDGGNYTYYPDNVKGRFTISRDIAKNNLYLQMSHLKSEDTAMYYCARDRWPYFFDFWGQGTTLTVSS VL: DIQMTQSPASLSVSVGETVTITCRASDNIYSNLAWYQEKQGKSPQLLVYGATNLADGVPSRFSGSGSGTQYSLKINSLQSEDFGSYYCQHFWTTPRSFGGGTKLELK | 1.12 | 1.46 | 48 | 33 | 1.01 | 89 | 69 | 0.035 | 0.032 | no binding (tested: 20 nM (highest tested)) | 0.039 | – |
